Laboratory results as given in patent publication US20220143213.

Legend:
[1] = target: IgG present within mouse serum
[2] = target: IgG present within primate serum
[3] = target: IgG present within human serum
[4] = target: human intravenous immunoglobulin (IVIG)

B1: recombinant IdeZ (NEB P0770S or Genscript) (protein)
chain: MKTIAYPNKPHSLSAGLLTAIAIFSLASSNITYADDYQRNATEAYAKEVPHQITSVWSKGVTPLTPEQFRYNNEDVIHAPYLAHQGWYDITKAFDGKDNLLCGAATAGNMLHWWFDQNKTEIEAYLSKHPEKQKIIFNNQELFDLKAAIDTKDSQTNSQLFNYFRDKAFPNLSARQLGVMPDLVLDMFINGYYLNVFKTQSTDVNRPYQDKDKRGGIFDAVFTRGDQTTLLTARHDLKNKGLNDISTIIKQELTEGRALALSHTYANVSISHVINLWGADFNAEGNLEAIYVTDSDANASIGMKKYFVGINAHGHVAISAKKIEGENIGAQVLGLFTLSSGKDIWQKLS
IgG cleavage, reducing SDS-PAGE with Coomassie stain [1]: IgG present within serum was cleaved by IdeZ
IgG cleavage, reducing SDS-PAGE with Coomassie stain [2]: IgG present within serum was cleaved by IdeZ
IgG cleavage, reducing SDS-PAGE with Coomassie stain [3]: IgG present within serum was cleaved by IdeZ
IgG cleavage, reducing SDS-PAGE with Coomassie stain (Donors 1-5) [3]: IdeZ also cleaved IgG in serum samples from additional human patients (Donors 1-5)
IVIG cleavage in vitro, reducing SDS-PAGE with Coomassie stain [4]: IdeZ cleaved human IVIG in vitro
IgG cleavage, SDS-PAGE (IgG from dog serum): IdeZ can cleave IgG from dog serum

B2: recombinant GST-IdeZ (N-terminally GST tagged IdeZ fusion) (protein)
chain: MKTIAYPNKPHSLSAGLLTAIAIFSLASSNITYADDYQRNATEAYAKEVPHQITSVWSKGVTPLTPEQFRYNNEDVIHAPYLAHQGWYDITKAFDGKDNLLCGAATAGNMLHWWFDQNKTEIEAYLSKHPEKQKIIFNNQELFDLKAAIDTKDSQTNSQLFNYFRDKAFPNLSARQLGVMPDLVLDMFINGYYLNVFKTQSTDVNRPYQDKDKRGGIFDAVFTRGDQTTLLTARHDLKNKGLNDISTIIKQELTEGRALALSHTYANVSISHVINLWGADFNAEGNLEAIYVTDSDANASIGMKKYFVGINAHGHVAISAKKIEGENIGAQVLGLFTLSSGKDIWQKLS
IgG cleavage, SDS-PAGE with Coomassie stain (heavy chain cleavage product ~31 kDa) [2]: GST-IdeZ cleaved IgG present within human and primate serum
IgG cleavage, SDS-PAGE with Coomassie stain (heavy chain cleavage product ~31 kDa) [3]: GST-IdeZ cleaved IgG present within human and primate serum
IVIG cleavage in vitro, reducing SDS-PAGE with Coomassie stain [4]: IdeZ cleaved human IVIG in vitro
